# Test results as given in patent US8871205B2, “Methods and compositions for the treatment of immune disorders” (The University of North Carolina at Chapel Hill, priority 2009, dated 2014).
# Test system: WT or Plxna4−/− peritoneal macrophages
# Test: TNF-α and IL-6 production (RT-PCR, ELISA) in peritoneal macrophages stimulated with Sema3A-Fc or Sema6A-Fc in the absence or presence of LPS
# Format: cell-based, mouse
# Settings: semaphorin alone, absence of LPS; macrophages
# Description: Messenger RNA (FIG. 7A) or protein (FIG. 7B) levels of TNF-α and IL-6 were measured by RT-PCR and ELISA, respectively. The IgG Fc fragment (100 μg/ml) was used as a negative control. WT and Plxna4^−/− mice (n=7˜9 per group) were pretreated with either Sema3A-Fc or IgG Fc control proteins at a dosage of 25 μg per kg body weight 1 h prior to CLP procedure (FIG. 7C). Survival rate was monitored for 5 days. τP<0.05 compared with WT mice pretreated with Sema3A-Fc. WT mice (n=4 per group) were pretreated with either Sema3A-Fc or IgG Fc control proteins, followed by CLP surgery (FIG. 7D). Inflammatory cytokines in peritoneal lavage collected 4 h after CLP were determined by ELISA. * P<0.05 compared to peritoneal lavage from WT mice pretreated with Sema3A-Fc (FIG. 7E). […] Inflammatory cytokines in peritoneal lavage collected 4 h after CLP were determined by ELISA. *P<0.05 compared with peritoneal lavage from WT mice pretreated with Sema3A-Fc (FIG. 7G).
# Total peritoneal cells were harvested from the peritoneal cavities of naïve WT or Plxna4^−/− mice with two 10 ml cold sterile PBS wash. […] The remaining cells were thoroughly washed with PBS and counted in a hemocytometer. Cytospins were prepared and stained with Diff-Quik solutions, and the number of peritoneal macrophages was determined. […]
molecule,measurement,value
"Sema6A: human Sema6A-Fc (1146-S6, R&D); chimeric protein of human IgG1 Fc fragment fused to Sema6A (protein, left off: a dimerising Fc or GST, human Sema6A-Fc (1146-S6, R&D); chimeric protein of human IgG1 Fc fragment fused to Sema6A) GFPEDSEPISISHGNYTKQYPVFVGHKPGRNTTQRHRLDIQMIMIMNGTLYIAARDHIYTVDIDTSHTEEIYCSKKLTWKSRQADVDTCRMKGKHKDECHNFIKVLLKKNDDALFVCGTNAFNPSCRNYKMDTLEPFGDEFSGMARCPYDAKHANVALFADGKLYSATVTDFLAIDAVIYRSLGESPTLRTVKHDSKWLKEPYFVQAVDYGDYIYFFFREIAVEYNTMGKVVFPRVAQVCKNDMGGSQRVLEKQWTSFLKARLNCSVPGDSHFYFNILQAVTDVIRINGRDVVLATFSTPYNSIPGSAVCAYDMLDIASVFTGRFKEQKSPDSTWTPVPDERVPKPRPGCCAGSSSLERYATSNEFPDDTLNFIKTHPLMDEAVPSIFNRPWFLRTMVRYRLTKIAVDTAAGPYQNHTVVFLGSEKGIILKFLARIGNSGFLNDSLFLEEMSVYNSEKCSYDGVEDKRIMGMQLDRASSSLYVAFSTCVIKVPLGRCERHGKCKKTCIASRDPYCGWIKEGGACSHLSPNSRLTFEQDIERGNTDGLGDCHNSFVALNGHSSSLLPSTTTSDSTAQEGYESRGGMLDWKHLLDSPDSTDPLGAVSSHNHQDKKGVIRESYLKGHDQLVPVT",TNF-α and IL-6 production,Neither Sema3A nor Sema6A alone induced
